Holding throughout (assay): EMSA
(In general: Mobility shift assays separate free from complexed probe on a gel.)

Data set [1] addresses T1, 6xHis-PhoP (Lacticaseibacillus paracasei BL23, UniProt Q03AN9 1-235).
T1 sequence: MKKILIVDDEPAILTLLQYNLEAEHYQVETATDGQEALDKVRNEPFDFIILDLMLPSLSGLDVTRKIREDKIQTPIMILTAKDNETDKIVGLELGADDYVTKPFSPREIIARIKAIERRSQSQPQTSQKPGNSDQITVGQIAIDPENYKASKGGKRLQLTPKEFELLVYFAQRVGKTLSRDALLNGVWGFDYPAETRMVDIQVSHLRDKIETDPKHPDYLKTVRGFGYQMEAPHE

The target of data set [2] is T2, 6xHis-PhoP~P (Lacticaseibacillus paracasei BL23, UniProt Q03AN9 1-235).
T2 sequence: T1 sequence

For data set [3], the target named is T2, 6xHis-PhoP~P. The source holds these as a separate data set.

The record followed here is PMC11870197.

B1: poxL promoter fragment (dsDNA)
DNA 1: TTGATCCATGATCCTGATCATCATTAAGTTAATTTGTGAAAAAGGTTTACCAAGCATGTTATGGCGTGGTGATGCTGTATTAGTTCACTTGTTTGACTGTTATGGTGTCGTCG
DNA 2: CGACGACACCATAACAGTCAAACAAGTGAACTAATACAGCATCACCACGCCATAACATGCTTGGTAAACCTTTTTCACAAATTAACTTAATGATGATCAGGATCATGGATCAA
Turning to B1, the binding result in data set [1] and in data set [2] was “no binding” each time.

B2: glnA promoter fragment (dsDNA)
DNA 1: TGCCAAATTAGTGACGCTATTTGCAAATTCCCCCGCGACAATTTTTAGACAATCTTTCCTTTTATTTAAAATCATGTAACATTAGGGCCGAACGATACATATGTAACGGTGTTTTTTAACC
DNA 2: GGTTAAAAAACACCGTTACATATGTATCGTTCGGCCCTAATGTTACATGATTTTAAATAAAAGGAAAGATTGTCTAAAAATTGTCGCGGGGGAATTTGCAAATAGCGTCACTAATTTGGCA
In the case of B2, in data set [3], the binding signal is ~10 fold more PhoP required than for pstS or phnD.

B3: ackA promoter fragment (dsDNA)
DNA 1: GATTCGCCGAAAACCAAGAAAAAGTCATGATGCTGTGCGATTACGTGTGCGGCAATCCGACTACCCGTTTAGAGGAGGAAAAAAACAATGGCAAAAATTCTCGCAGTCAACGCAGGCAGTTC
DNA 2: GAACTGCCTGCGTTGACTGCGAGAATTTTTGCCATTGTTTTTTTCCTCCTCTAAACGGGTAGTCGGATTGCCGCACACGTAATCGCACAGCATCATGACTTTTTCTTGGTTTTCGGCGAATC
In the case of B3, the binding result in data set [1] and in data set [2] was “no binding” in each case.
